Experimental findings from patent publication US20160159906A1 (Genentech, published 2016) are described below.

Where a chain is given by its changes, count along the chain named.

To fix the notation:
T1: human CD79b fused with an Fc domain at the C-terminus (printed at paragraph 314 as Human CD79a fused with an Fc … (human, UniProt P40259 29-159))
T1 construct: also called CD79b immobilized at a low density; Fc-tagged ECD of human CD79b; not shown: Fc domain at the C-terminus
T1 sequence: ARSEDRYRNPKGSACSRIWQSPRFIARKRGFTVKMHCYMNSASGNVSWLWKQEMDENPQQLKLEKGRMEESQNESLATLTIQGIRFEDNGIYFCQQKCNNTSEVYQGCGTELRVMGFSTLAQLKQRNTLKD

T2: human CD79b (human, UniProt P40259 29-229)
T2 construct: Endogenous CD79b on BJAB / BJAB-luciferase cells (FACS) and on human B cells (killing assays); also called huCD79b; Igβ
T2 sequence: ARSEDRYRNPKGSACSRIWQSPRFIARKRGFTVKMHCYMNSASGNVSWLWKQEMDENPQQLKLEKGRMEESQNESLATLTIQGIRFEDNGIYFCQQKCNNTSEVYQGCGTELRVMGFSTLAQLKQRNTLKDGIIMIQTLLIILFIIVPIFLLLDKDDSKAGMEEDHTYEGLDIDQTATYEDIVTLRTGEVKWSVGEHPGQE

B1: CD79b.A7.v14 (antibody, V domains shown)
VH: EVQLVQSGAEVKKPGASVKVSCKASGYTFTTYWMNWVRQAPGQGLEWIGMIDPSDSETHYNQMFKDRATLTVDTSTSTAYLELSSLRSEDTAVYYCSRSLAFWGQGTLVTVSS
VL: DIVMTQTPLSLPVTPGQPASISCKSSQSLLDSDGKTYLNWLLQKPGQSPQSLIYLVSKLDSGVPDRFSGSGSGTDFTLKISRVEAEDVGVYYCWQGTHFPQTFGQGTKVEIK
notes: VH1c + VL4; bivalent, dual arm IgG; also called huCD79b.A7.v14; CD79.A7.v14
B2: monovalent CD79.A7.v14 in the K&H TDB format CD79.A7.v14/40G5c (bispecific antibody, V domains shown)
VH 1: B1 VH
VL 1: B1 VL
VH 2: EVQLVQSGAEVKKPGASVKVSCKASGYTFTNYYIHWVRQAPGQGLEWIGWIYPGDGNTKYNEKFKGRATLTADTSTSTAYLELSSLRSEDTAVYYCARDSYSNYYFDYWGQGTLVTVSS
VL 2: DIVMTQSPDSLAVSLGERATINCKSSQSLLNSRTRKNYLAWYQQKPGQPPKLLIYWASTRESGVPDRFSGSGSGTDFTLTISSLQAEDVAVYYCTQSFILRTFGQGTKVEIK
notes: also called CD79b.A7.v14/40G5c K&H
B3: CD79b.A7.v19 (antibody, V domains shown)
VH: B1 VH with T74K
VL: B1 VL with I2V
notes: VH1d + VL5; assessed as IgG
B4: CD79b.A7.v20 (antibody, V domains shown)
VH: B1 VH with L70I
VL: B1 VL
notes: VH1e + VL4; assessed as IgG
B5: CD79b.A7.v18 (antibody, V domains shown)
VH: B1 VH with T74K
VL: B1 VL
notes: VH1d + VL4; assessed as IgG
B6: CD79b.A7.v15 (antibody, V domains shown)
VH: B1 VH
VL: B1 VL with I2V
notes: VH1c + VL5; assessed as IgG
B7: CD79b.A7.v21 (antibody, V domains shown)
VH: B1 VH with A68V
VL: B1 VL
notes: VH1f + VL4; assessed as IgG
B8: bispecific bisfab anti-CD79b/CD3 (CD79b.A7/UCHT1.v9) (bispecific antibody, V domains shown)
VH 1: QVQLQQPGVELVRPGASVKLSCKASGYTFTTYWMNWVRQRPGQGLDWIGMIDPSDSETHYNQMFKDKATLTVDKSSSTAYIQLNSLTSEDSAVYYCSRSLAFWGQGTLVTVSA
VL 1: not shown
VH 2: EVQLVESGGGLVQPGGSLRLSCAASGYSFTGYTMNWVRQAPGKDLEWVALINPYKGVSTYNQKFKDRFTISVDKSKNTAYLQMNSLRAEDTAVYYCARSGYYGDSDWYFDVWGQGTLVTVSS
VL 2: DIQMTQSPSSLSASVGDRVTITCRASQDIRNYLNWYQQKPGKAPKLLIYYTSRLESGVPSRFSGSGSGTDYTLTISSLQPEDFATYYCQQGNTLPWTFGQGTKLELK
notes: Bisfab format; constant parts and the link between the two Fabs are not described; also called CD79b.A7/UHT1.v9
B9: CD79b.A7, dual arm, bivalent anti-CD79b antibody (antibody, V domains shown)
VH: B8 VH 1
VL: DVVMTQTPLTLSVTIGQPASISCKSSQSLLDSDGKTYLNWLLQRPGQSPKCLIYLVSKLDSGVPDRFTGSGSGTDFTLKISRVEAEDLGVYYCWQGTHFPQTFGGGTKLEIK
notes: Mouse hybridoma clone; also called CD79.A7; muCD79b.A7
B10: chCD79b.A7 (antibody, V domains shown)
VH: B8 VH 1
VL: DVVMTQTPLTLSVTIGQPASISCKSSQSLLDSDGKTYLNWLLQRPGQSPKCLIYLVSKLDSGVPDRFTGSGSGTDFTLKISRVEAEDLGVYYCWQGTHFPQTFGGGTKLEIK
notes: Chimeric form of CD79b.A7 by its prefix ch
B11: SN8.new/UCHT1.v9 bispecific K&H antibody (bispecific antibody, V domains shown)
VH 1: EVQLVESGGGLVQPGGSLRLSCAASGYTFSSYWIEWVRQAPGKGLEWVGEILPGGGDTNYNEIFKGRFTISADTSKNTAYLQMNSLRAEDTAVYYCTRRVPIRLDYWGQGTLVTVSS
VL 1: DIQMTQSPSSLSASVGDRVTITCKASQSVDYDGDSFLNWYQQKPGKAPKLLIYAARKLGRGVPSRFSGSGSGTDFTLTISSLQPEDFATYYCQQSNEDPLTFGQGTKVEIK
VH 2: B8 VH 2
VL 2: B8 VL 2

In experiment [1] the target is B9. The experiment can be described thus: FACS on BJAB cells, peptide competition of CD79b.A7 binding (data not shown).
Experiment [2] has as its target T1, human CD79b fused with an Fc domain at …. The experiment can be described thus: Biacore T100 SPR, bivalent IgG over CD79b-Fc immobilized at low density; apparent affinity. On the procedure: The binding affinity of the antibodies in this section was determined by BIAcore™ T100. Briefly, BIAcore™ research grade CM5 chips were activated with 1-ethyl-3-(3-dimethylaminopropyl) carbodiimide (EDC) and N-hydroxysuccinimide (NHS) reagents according to the supplier's instructions. Human […] fused with an Fc domain at the C-terminus was coupled to the chips. To achieve more monovalent binding events, low density of ˜12 response units (RU) was immobilized in each flow cell. For measuring the apparent affinity of the antibodies, ˜370 RU of the antigen was immobilized. Unreacted coupling groups were blocked with 1M ethanolamine. For kinetics measurements, three-fold serial dilutions of antibody was injected in PBS-T buffer (0.05% surfactant P20 in PBS) at 25° C. with a flow rate of 30 μl/min. 10 mM glycine, pH 1.7 was used as regeneration buffer at 30 ul/min flow rate for 1 minute. Association rates (kₒₙ) and dissociation rates (koff) were calculated using a 1:1 Langmuir binding model (BIAcore™ T100 Evaluation Software version 2.0). The equilibrium dissociation constant (Kd) was calculated as the ratio koff/kₒₙ.
Thus additional humanized variants were made to evaluate the contribution of mouse framework vernier positions towards binding. Six additional light chains (VL1: CDRs graft+(Y36L), VL2: CDRs graft+(Y36L+L46C), VL3: CDRs graft+(I2V+Y36L+L46C), VL4: CDRs graft+(Y36L+L46S), VL5: CDRs graft+(I2V+Y36L+L46S), VL6: CDRs graft+(L46S)) and seven additional heavy chains (VH1a: CDRs graft+(A93S), VH1b: CDRs graft+(R71V+A93S), VH1c: CDRs graft+(V67A+I69L+R71V+A93S), VH1d:CDRs graft+(V67A+I69L+R71V+T73K+A93S), VH1e: CDRs graft+(V67A+R71V+A93S), VH1f: CDRs graft+(I69L+R71V+A93S), and VH1g: CDRs graft+(V67A+I69L)) were constructed and combined to generate the variants in Table 2. Based on the affinities of these variants, Y36L and L46C in the light chain appear to be key mouse vernier residues. […] In the heavy chain, V67A, I69L, R71V and A93S also contributed to CD79b binding; however R71V appeared to be the key mouse vernier residues based on this mutational analysis.

For experiment [3], the target named is T2, human CD79b. The experiment can be described thus: FACS on BJAB-luciferase cells, bivalent binding, PE anti-human IgG. The procedure: At the end of the incubation, cells were washed with ice cold FACS buffer (1× PBS, 2% BSA, 2 mM EDTA), followed by incubation with PE-labeled mouse anti-human IgG antibody (BD bioscience #555787). Flow cytometry analysis was done on a BD LSR analyzer. Bivalent binding was expressed as Mean Fluorescence Intensity (MFI) of PE fluorophore.

Experiment [4] has as its target T2, human CD79b. The experiment can be described thus: FACS on BJAB cells (FIG. 3C). On the procedure:
(§1) BJAB cells were incubated with anti-CD79b antibody (bivalent, dual arm antibody) or anti-CD79b/CD3 TDB antibody as indicated for 30 minutes on ice. At the end of the incubation, cells were washed with ice cold FACS buffer (lx PBS, 2% BSA, 2mM EDTA), followed by incubation with PE-labeled mouse anti-human IgG antibody (BD bioscience #555787). Flow cytometry analysis was done on a BD LSR analyzer. Antibody binding was expressed as Mean Fluorescence Intensity (MFI) of PE fluorophore. A: The bivalent binding affinity of anti-CD79b clone 2F2 comparing to monovalent binding affinity of anti-CD79b clones 2F2, SN8v28, and SN8new (as K&H TDBs); B: bivalent binding affinity of anti-CD79b clones CD79b.F6 and CD79b.A7 comparing to monovalent binding of anti-CD79b clones CD79b.F6, CD79b.A7, and SN8v28 (as bisfab or K&H TDBs); C: bivalent binding affinity of anti-CD79b clone CD79b.A7.v14 comparing to monovalent binding of anti-CD79b clone CD79b.A7.v14 (as K&H TDBs).
Binding affinity of the humanized CD79.A7.v14 of monovalent and bivalent was tested as described above.

Experiment [5] addresses B9. Nature of the experiment: FACS on BJAB cells, peptide competition (data not shown).
In experiment [6] the target is T2, human CD79b. Nature of the experiment: FACS on BJAB cells (FIG. 3B); bispecific bisfab, monovalent for CD79b. On the procedure: as §1
(§2) The monovalent and bivalent anti-CD79b antibody binding affinity was also evaluated in order to better understand the contribution, if any, to B cell killing activity. Binding affinity of dual arm, bivalent anti-CD79b antibodies and bispecific anti-CD79b/ CD3 antibodies using BJAB cells were also analyzed. […]

Experiment [7] has as its target T2, human CD79b. Nature of the experiment: cell-based or functional assay.
Experiment [8] has as its target T2, human CD79b. The experiment can be described thus: FACS on BJAB cells (FIG. 3B); dual arm, bivalent antibody. The procedure:
as §1, §2

For experiment [9], the target named is T2, human CD79b. The experiment can be described thus: FACS on BJAB cells, PE-labeled mouse anti-human IgG detection, MFI [panel A]. On the procedure:
as §1, §2

Consider AKSEDLYPNPKGSACSRIWQS, for which, in experiment [1], the binding result is listed as “no binding”.
By EC50 is commonly meant the concentration at which the effect is half-maximal. Higher therefore signals a need for much substance. Turning to B1, in [2], the Kd was 5 nM. Further, the EC50 is 0.068 µg/mL in [3] and 0.0468 µg/mL in [4].
The molecule B2 displayed an EC50 in [4] of 0.22 µg/mL.
For the molecule B3, the Kd in experiment [2] was 4 nM.
On to B4, for which the Kd in experiment [2] is 8 nM.
As for B5, the Kd in experiment [2] was found to be 4 nM.
Still for that read-out and setting: then B6, with 5 nM; and B7, with 8 nM.
With ARSEDRYRNPKGSACSRIWQS, in experiment [5], the binding result is “binds”.
B8 came in with an EC50 in experiment [6] of 1.4 µg/mL. The “endogenous B cell killing EC50” value in [7] was 0.012 µg/mL.
Consider B9, for which the midpoint of the response in experiment [8], the EC50, lay at 0.31 µg/mL.
As for B10, in experiment [3], the EC50 was 0.124 µg/mL.
The EC50 (read off the curve) is the concentration that produces a half-maximal response. As to B11, in experiment [9], the “EC50 (read off the curve)” value was roughly 1 µg/mL.
